Laboratory results taken from patent publication US20090142377A1.

Target: dH5-II (cdH5-0 heat-cycled at pH 2, back to pH 7) (influenza A virus H5N1 strain A/Vietnam/1203/04), Q8QPL1
Assay: ELISA, coated H5 form, tPA series with excess e-amino caproic acid
Conditions: remark: other sources report otherwise

B1: tissue type plasminogen activator (tPA; Actilyse, Boehringer-Ingelheim), P00750 36-562 (enzyme)
chain: SYQVICRDEKTQMIYQQHQSWLRPVLRSNRVEYCWCNSGRAQCHSVPVKSCSEPRCFNGGTCQQALYFSDFVCQCPEGFAGKCCEIDTRATCYEDQGISYRGTWSTAESGAECTNWNSSALAQKPYSGRRPDAIRLGLGNHNYCRNPDRDSKPWCYVFKAGKYSSEFCSTPACSEGNSDCYFGNGSAYRGTHSLTESGASCLPWNSMILIGKVYTAQNPSAQALGLGKHNYCRNPDGDAKPWCHVLKNRRLTWEYCDVPSCSTCGLRQYSQPQFRIKGGLFADIASHPWQAAIFAKHRRSPGERFLCGGILISSCWILSAAHCFQERFPPHHLTVILGRTYRVVPGEEEQKFEVEKYIVHKEFDDDTYDNDIALLQLKSDSSRCAQESSVVRTVCLPPADLQLPDWTECELSGYGKHEALSPFYSERLKEAHVRLYPSSRCTSQHLLNRTVTDNMLCAGDTRSGGPQANLHDACQGDSGGPLVCLNDGRMTLVGIISWGLGCGQKDVPGVYTKVTNYLDWIRDNMRP
Bmax: 0.07
Kd: 19 nM
